Assay [1] addresses T1, soluble human IL-6 receptor (hsIL-6R) (human, UniProt P08887 20-357).
T1 construct: also called hIL-6R
T1 sequence: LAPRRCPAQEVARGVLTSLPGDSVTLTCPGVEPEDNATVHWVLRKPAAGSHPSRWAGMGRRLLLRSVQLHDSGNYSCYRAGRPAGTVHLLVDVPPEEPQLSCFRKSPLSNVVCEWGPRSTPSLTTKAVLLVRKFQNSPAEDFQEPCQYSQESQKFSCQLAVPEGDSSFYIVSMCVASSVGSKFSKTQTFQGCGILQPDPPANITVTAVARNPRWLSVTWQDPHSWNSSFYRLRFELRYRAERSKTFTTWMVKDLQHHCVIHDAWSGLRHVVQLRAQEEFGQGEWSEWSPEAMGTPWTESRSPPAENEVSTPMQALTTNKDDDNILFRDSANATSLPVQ
The assay is described as follows: ECL sandwich: biotinylated Fv4-IgG1 on streptavidin plate captures hsIL-6R, detected with ruthenium-labelled PHX-F29. The procedure: Whether or not two types of antibodies can bind to a single antigen simultaneously was evaluated by an electrochemiluminescence method. […] After washing, 100 μL of the hsIL-6R solutions prepared at 0, 0.2, 1, 5, and 25 μg/mL was added, and they were allowed to react at room temperature for one hour. […] After washing, 150 μL of Read Buffer T (×4) (Meso Scale Discovery) was dispensed into each well, and this was immediately followed by chemiluminescence measurement using the SECTOR IMAGER 2400 Reader (Meso Scale Discovery).

In assay [2] the target is T2, soluble mouse FcRn (mFcRn), with mouse β2-microglobulin (mouse, UniProt Q61559 22-290; P01887 21-119).
T2 sequence: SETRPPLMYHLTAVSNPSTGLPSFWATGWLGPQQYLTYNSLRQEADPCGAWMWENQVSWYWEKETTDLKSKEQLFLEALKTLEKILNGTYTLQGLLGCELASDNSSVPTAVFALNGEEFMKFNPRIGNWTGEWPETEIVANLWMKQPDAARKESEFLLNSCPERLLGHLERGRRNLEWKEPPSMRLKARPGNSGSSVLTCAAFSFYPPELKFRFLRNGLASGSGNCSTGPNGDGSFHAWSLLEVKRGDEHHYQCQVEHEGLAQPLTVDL
T2 sequence (b2m): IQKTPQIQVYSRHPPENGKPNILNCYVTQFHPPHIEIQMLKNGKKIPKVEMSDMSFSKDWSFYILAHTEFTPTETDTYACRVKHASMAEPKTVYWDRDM
The assay is described as follows: SPR (Biacore T100), mouse FcRn immobilised on a CM4 chip, Fv4-IgG1 50 µg/mL alone or with hsIL6R 12.5 µg/mL as analyte, pH 7.4, 25 °C; bound amount normalised to 100 [i]. As for the experimental part:
(§1) Binding of an antigen-antibody immune complex with FcRn was assessed using Biacore T100 (GE Healthcare). […] Subsequently, a 20 mM Tris-HCl, 150 mM NaCl, pH 9.0 or pH 9.5 solution was injected to regenerate the sensor chip. A 50 mmol/L Na-Phosphate (phsophoric acid), 150 mmol/L NaCl, 0.05% Tween20, pH 7.4 buffer was used as the running buffer, and binding between the antigen-antibody immune complex and FcRn was measured at 25° C.

Assay [3] deals with soluble human FcRn (hFcRn), complex with β2-microglobulin (human, UniProt P55899 24-290; P61769 21-119). The assay is described as follows: SPR (Biacore T100), human FcRn immobilised on a CM4 chip, Fv4-F22 10 µg/mL alone or with hsIL6R 2.5 µg/mL as analyte, pH 7.4, 25 °C; bound amount normalised to 100 [i]. As for the experimental part: (§2) Binding of an antigen-antibody immune complex with human FcRn was assessed using Biacore T100 (GE Healthcare).
(§3) Subsequently, a 20 mM Tris-HCl, 150 mM NaCl, pH 9.0 or pH 9.5 solution was injected to regenerate the sensor chip. A 50 mmol/L Na-Phosphate (phosphoric acid), 150 mmol/L NaCl, 0.05% Tween20, pH 7.4 buffer was used as the running buffer, and binding between the antigen-antibody immune complex and FcRn was measured at 25° C.
On the technique in general: In SPR one partner is held on a chip, and binding of the other changes the refractive index at the surface.

Assay [4] addresses T1, soluble human IL-6 receptor (hsIL-6R). The assay is described as follows: SPR (Biacore T100), 25 C, pH 7.4; Fv4-F22 10 µg/mL with or without hsIL6R 2.5 µg/mL over immobilized hFcRn. As for the experimental part: as §2, §3
Assay [5] concerns the target T3, GC-hIgA-MYC (human).
T3 construct: also called hIgA-v2
Nature of the assay: SPR (Biacore T200), 25 C, pH 7.4, 1.2 mM Ca; 200 nM antibody with or without 200 nM antigen over captured human FcγRIIIaV; immune complex shown by slower dissociation.
Description: Binding of an antigen-antibody immune complex with FcγR was assessed using Biacore T200 (GE Healthcare).
A suitable amount of the Penta-His Antibody (QIAGEN) was immobilized onto Sensor chip CM5 (GE Healthcare) by an amine coupling method; and a suitable concentration of his-tagged human FcγR IIIaV was injected. Human FcγR IIIaV was immobilized onto the chip by allowing the penta-His antibody immobilized on the chip to capture human FcγR IIIaV. A solution containing 200 nM antibody or a mixed solution containing 200 nM antibody and 200 nM antigen was injected as the analyte; and it was allowed to interact with human FcγR IIIaV immobilized on the sensor chip. Subsequently, a 10 mmol/L Glycine-HCl, pH2.5 solution was injected to regenerate the sensorchip. A 1.2 mmol/L CaCl₂/0.05% tween20, 20 mmol/L ACES, 150 mmol/L NaCl, pH 7.4 buffer was used as the running buffer, and binding between the antigen-antibody immune complex and FcγR was measured at 25° C.

The target of assay [6] is Human IgA (hIgA), H (WT)-IgA1 / L (WT) (human). The assay is described as follows: >=.
The target in assay [7] is T4, human IgE (variable region derived from an anti-human glypican3 antibody) (human).
T4 construct: also called hIgE
Nature of the assay: SPR (Biacore T200), 37 C; ratio of KD values. As for the experimental part: Running buffers used in the assay were:
A chemically-synthetized peptide having a human glypican 3 protein-derived sequence (SEQ ID NO: 47) whose C-terminal Lys is biotinylated (hereinafter abbreviated as “biotinylated GPC3 peptide”) was added in an appropriate amount and immobilized onto Sensor chip SA (GE Healthcare) based on the affinity between biotin and streptavidin. Human IgE was immobilized onto the chip by injecting it at an appropriate concentration so as to be trapped by the biotinylated GPC3 peptide. […] Then, 10 mmol/L glycine-HCl (pH 1.5) was injected to regenerate the sensor chip. The interaction was always measured at 37° C. The measurement result was analyzed by curve fitting using Biacore T200 Evaluation Software (GE Healthcare) to calculate the association rate constant ka (1/Ms) and dissociation rate constant kd (1/s). The dissociation constant KD (M) was calculated from the above-described constants.

Assay [8] concerns the target T2, soluble mouse FcRn (mFcRn), with mouse …. The assay is described as follows: SPR (Biacore T100), mouse FcRn immobilised on a CM4 chip, clone 278-IgG1 50 µg/mL as analyte, pH 7.4, 25 °C; bound amount normalised to 100 [ii]. The procedure: as §1

T4 sequence (heavy, as listed by the source): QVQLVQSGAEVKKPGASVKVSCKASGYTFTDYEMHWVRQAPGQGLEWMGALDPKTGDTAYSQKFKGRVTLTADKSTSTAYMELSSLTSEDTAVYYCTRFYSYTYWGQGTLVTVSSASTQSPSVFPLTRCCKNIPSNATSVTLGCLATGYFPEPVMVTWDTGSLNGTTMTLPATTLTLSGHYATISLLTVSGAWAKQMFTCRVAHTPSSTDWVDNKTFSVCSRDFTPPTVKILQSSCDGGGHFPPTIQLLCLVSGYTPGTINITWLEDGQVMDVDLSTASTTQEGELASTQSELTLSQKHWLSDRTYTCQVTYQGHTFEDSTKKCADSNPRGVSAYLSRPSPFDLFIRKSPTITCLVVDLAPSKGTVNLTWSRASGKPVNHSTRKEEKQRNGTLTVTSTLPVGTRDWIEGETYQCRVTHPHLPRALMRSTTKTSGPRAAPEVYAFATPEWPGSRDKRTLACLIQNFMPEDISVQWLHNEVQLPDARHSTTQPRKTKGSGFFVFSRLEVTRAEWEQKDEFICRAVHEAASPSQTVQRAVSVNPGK
Sequence of soluble human FcRn (hFcRn), complex with β2-microglobulin (P55899 24-290 limits assumed, chain 1 of 2): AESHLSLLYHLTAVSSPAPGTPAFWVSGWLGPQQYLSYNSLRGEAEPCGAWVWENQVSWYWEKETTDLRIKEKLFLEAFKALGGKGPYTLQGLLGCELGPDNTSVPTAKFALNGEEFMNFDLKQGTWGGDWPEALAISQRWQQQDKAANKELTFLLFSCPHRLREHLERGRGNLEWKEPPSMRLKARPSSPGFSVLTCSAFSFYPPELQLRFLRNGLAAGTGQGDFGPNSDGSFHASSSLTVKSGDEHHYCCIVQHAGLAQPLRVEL
Sequence of soluble human FcRn (hFcRn), complex with β2-microglobulin (P61769 21-119 limits assumed, chain 2 of 2): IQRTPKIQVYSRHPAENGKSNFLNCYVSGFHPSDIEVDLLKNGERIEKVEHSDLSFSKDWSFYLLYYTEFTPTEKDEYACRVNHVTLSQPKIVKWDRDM
Sequence of Human IgA (hIgA), H (WT)-IgA1 / L (WT) (human) (VH, as listed by the source): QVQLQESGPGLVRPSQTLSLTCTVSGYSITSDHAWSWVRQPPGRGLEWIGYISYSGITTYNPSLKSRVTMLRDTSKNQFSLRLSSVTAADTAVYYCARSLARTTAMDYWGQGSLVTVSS
T3 sequence (heavy, as listed by the source): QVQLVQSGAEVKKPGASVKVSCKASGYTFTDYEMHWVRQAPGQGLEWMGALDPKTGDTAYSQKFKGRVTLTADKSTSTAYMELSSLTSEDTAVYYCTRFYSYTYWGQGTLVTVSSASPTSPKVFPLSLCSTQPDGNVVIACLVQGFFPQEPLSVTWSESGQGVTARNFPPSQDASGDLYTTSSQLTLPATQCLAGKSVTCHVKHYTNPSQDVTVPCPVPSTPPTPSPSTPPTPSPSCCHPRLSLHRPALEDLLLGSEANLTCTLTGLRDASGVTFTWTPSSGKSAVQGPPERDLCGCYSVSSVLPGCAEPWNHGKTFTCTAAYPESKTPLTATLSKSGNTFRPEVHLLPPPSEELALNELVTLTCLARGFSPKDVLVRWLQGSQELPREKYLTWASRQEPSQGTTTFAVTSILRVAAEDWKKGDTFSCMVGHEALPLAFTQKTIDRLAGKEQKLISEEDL

B1: Fv4-IgG1 (antibody)
heavy: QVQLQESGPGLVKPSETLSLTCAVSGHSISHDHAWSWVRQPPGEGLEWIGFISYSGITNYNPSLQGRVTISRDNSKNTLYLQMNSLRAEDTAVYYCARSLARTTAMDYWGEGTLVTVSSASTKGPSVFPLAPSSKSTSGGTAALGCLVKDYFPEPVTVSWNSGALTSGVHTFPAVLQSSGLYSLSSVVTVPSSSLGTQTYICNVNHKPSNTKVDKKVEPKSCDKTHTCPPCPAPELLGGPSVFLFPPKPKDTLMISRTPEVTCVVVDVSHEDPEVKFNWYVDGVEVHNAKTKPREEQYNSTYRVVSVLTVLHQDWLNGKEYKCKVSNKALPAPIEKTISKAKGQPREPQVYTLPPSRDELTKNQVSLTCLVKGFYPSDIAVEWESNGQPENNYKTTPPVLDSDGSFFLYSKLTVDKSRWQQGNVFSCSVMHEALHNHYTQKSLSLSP
light: DIQMTQSPSSLSASVGDSVTITCQASTDISSHLNWYQQKPGKAPELLIYYGSHLLSGVPSRFSGSGSGTDFTFTISSLEAEDAATYYCGQGNRLPYTFGQGTKVEIERTVAAPSVFIFPPSDEQLKSGTASVVCLLNNFYPREAKVQWKVDNALQSGNSQESVTEQDSKDSTYSLSSTLTLSKADYEKHKVYACEVTHQGLSSPVTKSFNRGEC
notes: pH-dependent anti-human IL-6 receptor antibody
For the molecule B1, the binding result in assay [1] and in assay [2] was “binds” throughout.

B2: Fv4-F22 (antibody, human IgG1, kappa)
heavy: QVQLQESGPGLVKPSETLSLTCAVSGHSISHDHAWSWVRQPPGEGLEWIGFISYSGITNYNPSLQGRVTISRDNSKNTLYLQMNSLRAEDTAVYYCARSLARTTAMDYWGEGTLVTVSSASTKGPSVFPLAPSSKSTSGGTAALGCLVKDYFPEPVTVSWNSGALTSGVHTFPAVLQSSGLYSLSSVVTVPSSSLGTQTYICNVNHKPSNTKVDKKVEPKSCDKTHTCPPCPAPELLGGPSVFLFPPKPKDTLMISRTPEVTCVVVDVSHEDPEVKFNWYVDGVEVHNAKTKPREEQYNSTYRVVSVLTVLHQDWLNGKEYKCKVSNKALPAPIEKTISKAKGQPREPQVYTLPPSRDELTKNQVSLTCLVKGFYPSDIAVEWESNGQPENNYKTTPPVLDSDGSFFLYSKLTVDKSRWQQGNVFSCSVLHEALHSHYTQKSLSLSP
light: DIQMTQSPSSLSASVGDSVTITCQASTDISSHLNWYQQKPGKAPELLIYYGSHLLSGVPSRFSGSGSGTDFTFTISSLEAEDAATYYCGQGNRLPYTFGQGTKVEIERTVAAPSVFIFPPSDEQLKSGTASVVCLLNNFYPREAKVQWKVDNALQSGNSQESVTEQDSKDSTYSLSSTLTLSKADYEKHKVYACEVTHQGLSSPVTKSFNRGEC
On to B2, for which the binding result in assay [3] and in assay [4] was “binds” each time.

B3: GA2-IgG1 (antibody, V domains shown)
VH: QVQLVQSGAEVKKPGSSVKVSCKASGGTFSSYAISWVRQAPGQGLEWMGGIIPIFGTANYAQKFQGRVTITADESTSTAYMELSSLRSEDTAVYYCARPRWETAISSDAFDIWGQGTMVTVSS
VL: DIQMTQSPSSLSASVGDRVTITCRASQSISDDLNWYQQKPGKAPKLLIYEASNLQSGVPSRFSGSGSGTDFTLTISSLQPEDFATYYCQQHSSSPLTFGQGTKVEIKR
notes: also called GA-IgG1
B3: in assay [5], the binding result is listed as “binds”. Besides, the “Ca-dependent binding activity (fold)” value in assay [6] came out at 100 times.

B4: clone 278 (antibody, human IgG1, kappa)
heavy: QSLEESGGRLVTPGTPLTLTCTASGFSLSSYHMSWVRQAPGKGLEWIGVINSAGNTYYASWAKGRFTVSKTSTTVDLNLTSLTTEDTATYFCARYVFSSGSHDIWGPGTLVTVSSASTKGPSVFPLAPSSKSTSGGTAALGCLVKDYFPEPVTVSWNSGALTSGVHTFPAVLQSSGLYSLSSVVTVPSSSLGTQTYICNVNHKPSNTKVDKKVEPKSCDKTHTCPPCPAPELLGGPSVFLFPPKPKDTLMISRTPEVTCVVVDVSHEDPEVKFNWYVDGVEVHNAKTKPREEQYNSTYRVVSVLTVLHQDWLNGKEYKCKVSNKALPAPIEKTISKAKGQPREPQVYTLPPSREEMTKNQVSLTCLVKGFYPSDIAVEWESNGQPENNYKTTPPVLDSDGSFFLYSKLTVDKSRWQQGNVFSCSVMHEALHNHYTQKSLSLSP
light: AYDMTQTPASVEVAVGGTVTIKCQASQSIGSWLAWYQQKPGQPPKELIYGTSTLESGVPSRFIGSGSGTEFTLTISGVECADAATYYCQQGYSEDNIDNAFGGGTEVVVKRTVAAPSVFIFPPSDEQLKSGTASVVCLLNNFYPREAKVQWKVDNALQSGNSQESVTEQDSKDSTYSLSSTLTLSKADYEKHKVYACEVTHQGLSSPVTKSFNRGEC
notes: pH-dependent anti-human IgE antibody with a human IgG1 heavy chain constant region and a human light chain constant region
Take B4: in assay [7], the “pH dependency, KD (pH 5.8, 1.2 mM Ca)/KD (pH 7.4, 1.2 mM Ca)” value came out at 842 ratio and the “pH/Ca dependency, KD (pH 5.8, 3 µM Ca)/KD (pH 7.4, 1.2 mM Ca)” value was 1640 ratio. Besides, the binding result in assay [8] was “binds”.
